Sequences and labels used below:
B1: FAM46C (parent)
chain: VRSRLEEAGIKVHDVRLNGSAAGH
B2: CLCN6 (parent)
chain: TGLVGLFVDFFVRLFTQLKFGVVQ

In the supplement of paper PMC10567573 one finds protein stability index data, which are given here for 94 variants.
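Also: lentivirally expressed fusions sorted by FACS into six bins by GFP to DsRed ratio, PSI derived from sequencing read proportions per bin multiplied by bin number.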

The variants in the first data set derive from B1. Description: protein stability index of a GFP-peptide fusion (GPS, HEK-293T) (PSI 1-6); higher = more stable. Conditions: c terminus: a fixed tail appended.
Take VRSFLEEAGIKVHDVRLNGSAAGH [R4F]: the protein stability index was 1.89. On to VRSGLEEAGIKVHDVRLNGSAAGH [R4G], for which the protein stability index was determined as 3.25. Still for that read-out and setting: next, VRSNLEEAGIKVHDVRLNGSAAGH [R4N]: 2.47; VRSALEEAGIKVHDVRLNGSAAGH [R4A]: 1.2; VRSYLEEAGIKVHDVRLNGSAAGH [R4Y]: 1.81. With VRSELEEAGIKVHDVRLNGSAAGH [R4E], the protein stability index was 4.73. Same read-out and setting: for VRSTLEEAGIKVHDVRLNGSAAGH [R4T] the value was 3.71; for VRSWLEEAGIKVHDVRLNGSAAGH [R4W], 2.33.

With VRSQLEEAGIKVHDVRLNGSAAGH [R4Q], the protein stability index was 3.52. Take VRSHLEEAGIKVHDVRLNGSAAGH [R4H]: the protein stability index worked out at 3.26. For the variant VRSKLEEAGIKVHDVRLNGSAAGH [R4K], the protein stability index was determined as 2.27. Consider VRSILEEAGIKVHDVRLNGSAAGH [R4I], for which the protein stability index turned out to be 2.53.

As to VRSCLEEAGIKVHDVRLNGSAAGH [R4C], the protein stability index stood at 2.72. VRSPLEEAGIKVHDVRLNGSAAGH [R4P]: the protein stability index amounted to 4.24. Consider VRSSLEEAGIKVHDVRLNGSAAGH [R4S], for which the protein stability index is 3. Consider VRSRTEEAGIKVHDVRLNGSAAGH [L5T], for which the protein stability index turned out to be 4.59.

With VRSRAEEAGIKVHDVRLNGSAAGH [L5A], the protein stability index was determined as 4.34. As for VRSRWEEAGIKVHDVRLNGSAAGH [L5W], the protein stability index is 3.49. Consider VRSREEEAGIKVHDVRLNGSAAGH [L5E], for which the protein stability index is 4.38. On the same count and under the same terms, next, VRSRREEAGIKVHDVRLNGSAAGH [L5R]: 4; VRSRCEEAGIKVHDVRLNGSAAGH [L5C]: 3.68.

VRSRGEEAGIKVHDVRLNGSAAGH [L5G]: the protein stability index was found to be 4.21. Same read-out and setting: for VRSRKEEAGIKVHDVRLNGSAAGH [L5K] the value was 3.97; for VRSRVEEAGIKVHDVRLNGSAAGH [L5V], 3.7.

As for VRSRSEEAGIKVHDVRLNGSAAGH [L5S], the protein stability index worked out at 4.34. With VRSRDEEAGIKVHDVRLNGSAAGH [L5D], the protein stability index turned out to be 4.35. With VRSRYEEAGIKVHDVRLNGSAAGH [L5Y], the protein stability index worked out at 3.04. With VRSRNEEAGIKVHDVRLNGSAAGH [L5N], the protein stability index turned out to be 4.03.

Regarding VRSRQEEAGIKVHDVRLNGSAAGH [L5Q], the protein stability index turned out to be 5.12. Still for that read-out and setting: for KRSRLEEAGIKVHDVRLNGSAAGH [V1K] the value was 3.62; for PRSRLEEAGIKVHDVRLNGSAAGH [V1P], 4.38.

As for QRSRLEEAGIKVHDVRLNGSAAGH [V1Q], the protein stability index was found to be 4.59.

As for RRSRLEEAGIKVHDVRLNGSAAGH [V1R], the protein stability index came out at 4.11.

Turning to HRSRLEEAGIKVHDVRLNGSAAGH [V1H], the protein stability index turned out to be 4.02.

For LRSRLEEAGIKVHDVRLNGSAAGH [V1L], the protein stability index is 1.33. With DRSRLEEAGIKVHDVRLNGSAAGH [V1D], the protein stability index turned out to be 4.33. In the case of NRSRLEEAGIKVHDVRLNGSAAGH [V1N], the protein stability index amounted to 3.5. The same measure, in the same setting: next, SRSRLEEAGIKVHDVRLNGSAAGH [V1S]: 4.18; ARSRLEEAGIKVHDVRLNGSAAGH [V1A]: 3.16; MRSRLEEAGIKVHDVRLNGSAAGH [V1M]: 2.6. On to YRSRLEEAGIKVHDVRLNGSAAGH [V1Y], for which the protein stability index was determined as 3.57.

Regarding FRSRLEEAGIKVHDVRLNGSAAGH [V1F], the protein stability index is 2.56.

As for ERSRLEEAGIKVHDVRLNGSAAGH [V1E], the protein stability index turned out to be 3.44. For TRSRLEEAGIKVHDVRLNGSAAGH [V1T], the protein stability index was 4.25. With VRKRLEEAGIKVHDVRLNGSAAGH [S3K], the protein stability index came out at 1.37. On to VRGRLEEAGIKVHDVRLNGSAAGH [S3G], for which the protein stability index was determined as 2.91. Take VRPRLEEAGIKVHDVRLNGSAAGH [S3P]: the protein stability index is 4.33. For VRWRLEEAGIKVHDVRLNGSAAGH [S3W], the protein stability index came to 2.05. Regarding VRFRLEEAGIKVHDVRLNGSAAGH [S3F], the protein stability index was found to be 1.69. For the variant VRLRLEEAGIKVHDVRLNGSAAGH [S3L], the protein stability index was determined as 1.28.

VRNRLEEAGIKVHDVRLNGSAAGH [S3N]: the protein stability index was 1.77.

VRQRLEEAGIKVHDVRLNGSAAGH [S3Q]: the protein stability index was 1.79. Consider VRTRLEEAGIKVHDVRLNGSAAGH [S3T], for which the protein stability index stood at 1.68.

As for VRHRLEEAGIKVHDVRLNGSAAGH [S3H], the protein stability index was determined as 3.76. Same read-out and setting: for VRYRLEEAGIKVHDVRLNGSAAGH [S3Y] the value was 1.53; for VRVRLEEAGIKVHDVRLNGSAAGH [S3V], 1.69; for VRMRLEEAGIKVHDVRLNGSAAGH [S3M], 1.53. Same read-out and setting: for VISRLEEAGIKVHDVRLNGSAAGH [R2I] the value was 2.15. Still for that read-out and setting: for VSSRLEEAGIKVHDVRLNGSAAGH [R2S] the value was 4.37. Consider VHSRLEEAGIKVHDVRLNGSAAGH [R2H], for which the protein stability index stood at 2.4.

With VTSRLEEAGIKVHDVRLNGSAAGH [R2T], the protein stability index came out at 3.82. Consider VLSRLEEAGIKVHDVRLNGSAAGH [R2L], for which the protein stability index stood at 2.34.

Take VASRLEEAGIKVHDVRLNGSAAGH [R2A]: the protein stability index worked out at 3.04.

Turning to VGSRLEEAGIKVHDVRLNGSAAGH [R2G], the protein stability index worked out at 3.36. As for VMSRLEEAGIKVHDVRLNGSAAGH [R2M], the protein stability index was 2.33. On the same count and under the same terms, next, VFSRLEEAGIKVHDVRLNGSAAGH [R2F]: 2.04.

With VYSRLEEAGIKVHDVRLNGSAAGH [R2Y], the protein stability index stood at 2.95. VVSRLEEAGIKVHDVRLNGSAAGH [R2V]: the protein stability index turned out to be 2.13. With VQSRLEEAGIKVHDVRLNGSAAGH [R2Q], the protein stability index amounted to 2.58.

Regarding VESRLEEAGIKVHDVRLNGSAAGH [R2E], the protein stability index was determined as 3.85. Consider VDSRLEEAGIKVHDVRLNGSAAGH [R2D], for which the protein stability index turned out to be 4.25.

On to VWSRLEEAGIKVHDVRLNGSAAGH [R2W], for which the protein stability index came to 2.28.

On to VCSRLEEAGIKVHDVRLNGSAAGH [R2C], for which the protein stability index was 2.3. For the variant VPSRLEEAGIKVHDVRLNGSAAGH [R2P], the protein stability index turned out to be 3.89. Take VRSRLDEAGIKVHDVRLNGSAAGH [E6D]: the protein stability index is 3.09.

The variants in the next data set derive from B2. Described as above. Conditions: c terminus: a fixed tail appended.
In the case of TGLVGLFVDFFVRLFTQLKFGVVS [Q24S], the protein stability index worked out at 2.94. As for TGLVGLFVDFFVRLFTQLKFGVVP [Q24P], the protein stability index came to 1.88.

With TGLVGLFVDFFVRLFTQLKFGVVE [Q24E], the protein stability index was determined as 2.08. Consider TGLVGLFVDFFVRLFTQLKFGVVG [Q24G], for which the protein stability index came out at 2.32. As to TGLVGLFVDFFVRLFTQLKFGVVR [Q24R], the protein stability index was found to be 3.77. On the same count and under the same terms, for TGLVGLFVDFFVRLFTQLKFGVVK [Q24K] the value was 3.16. For the variant TGLVGLFVDFFVRLFTQLKFGVVA [Q24A], the protein stability index worked out at 1.66. As for TGLVGLFVDFFVRLFTQLKFGVVW [Q24W], the protein stability index turned out to be 2.36. For TGLVGLFVDFFVRLFTQLKFGVVT [Q24T], the protein stability index stood at 1.6. For TGLVGLFVDFFVRLFTQLKFGVVL [Q24L], the protein stability index came out at 2.14. As for TGLVGLFVDFFVRLFTQLKFGVVH [Q24H], the protein stability index came out at 2.07. Take TGLVGLFVDFFVRLFTQLKFGVVF [Q24F]: the protein stability index stood at 1.18.

Consider TGLVGLFVDFFVRLFTQLKFGVVN [Q24N], for which the protein stability index is 2.55. On the same count and under the same terms, next, TGLVGLFVDFFVRLFTQLKFGVVC [Q24C]: 1.26; TGLVGLFVDFFVRLFTQLKFGVVD [Q24D]: 2.46. For the variant TGLVGLFVDFFVRLFTQLKFGVVI [Q24I], the protein stability index was determined as 2.66. TGLVGLFVDFFVRLFTQLKFGVVV [Q24V]: the protein stability index was found to be 1.71.

In the case of TGLVGLFVDFFVRLFTQLKFGVVY [Q24Y], the protein stability index was 1.74.

Regarding TGLVGLFVDFFVRLFTQLKFGVVM [Q24M], the protein stability index amounted to 1.9.
